Biological target: A3G-CTD2* (catalytically inactive), MST construct (human, UniProt Q9HC16 191-384, E259A)
Assay: MST; 23 C; MST: 20 mM Bis-Tris pH 6.5, 100 mM NaCl, 1 mM DTT, 0.002% Tween 20, 50 nM protein, RED-tris-NTA dye, 23 C; NMR inhibition: 50 mM NaPO4 pH 6.5, 100 mM NaCl, 0.002% Tween 20, 1 mM DTT, 10 µM ZnCl2, 25 C
Details: protein: recombinant; tags: His (pET-28a); single strand

Chain of A3G-CTD2* (catalytically inactive), MST construct (Q9HC16 191-384 E259A): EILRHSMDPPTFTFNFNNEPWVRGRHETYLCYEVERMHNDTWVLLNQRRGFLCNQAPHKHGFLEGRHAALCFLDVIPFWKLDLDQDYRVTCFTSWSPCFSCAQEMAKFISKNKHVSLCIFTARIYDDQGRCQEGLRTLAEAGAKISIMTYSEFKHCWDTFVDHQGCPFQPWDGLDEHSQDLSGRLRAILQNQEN

AATCCCAAA (ssDNA) [5'-AATCCCAAA (substrate)]
Kd: 5.8 ± 0.8 µM
